Values of other authors, collected in PMC12390062.

Experiments:
[1] = molecular target: nicotinic acetylcholine receptor α7 (Gallus gallus) (UniProt P22770)
[2] = molecular target: nicotinic acetylcholine receptor α-γ interface α-γ interface (Mus musculus) (UniProt P04756)
[3] = molecular target: nicotinic acetylcholine receptor α-δ interface α-δ interface (Mus musculus) (UniProt P04756)

Substance	Kd [1] [µM]	Kd [2] [µM]	Kd [3] [µM]
wNTX5 (Group 3b (ii) toxin) (from UniProt O42255)	90		
α-conotoxin MI (from UniProt P01521)		20	0.00062
